Data on one molecule can be found in patent US20250152717A1 (AFFINI T THERAPEUTICS, published 2025).

This assay addresses RAB7B-derived peptide presented by HLA-A11 (human). The assay is described as follows: cell-based or functional assay. Details: unit not given beside the values.

B1: TCR 11N4A (TCR, V domains shown)
V domain 1: DQQVKQNSPSLSVQEGRISILNCDYTNSMFDYFLWYKKYPAEGPTFLISISSIKDKNEDGRFTVFLNKSAKHLSLHIVPSQPGDSAVYFCAASGVSGNTPLVFGKGTRLSVIA
V domain 2: GVTQTPRYLIKTRGQQVTLSCSPISGHRSVSWYQQTPGQGLQFLFEYFSETQRNKGNFPGRFSGRQFSNSRSEMNVSTLELGDSALYLCASSVGTVEQYFGPGTRLTVTE
B1: the “EC50 of the peptide dose-response of CD137 expression, sort-purified TCR 11N4A-transduced T cells” value was about 35.
